Remaining activity [%] data for eight substances are collected here from patent US20210277053A1.

What all share (assay): ELISA on immobilised human gamma globulin, anti-6-His detection; antibody-binding activity after 0.5 M NaOH, 25 C, 15 h divided by activity without alkali treatment
A general note: An ELISA detects its analyte on a solid surface through an enzyme-linked reagent.

The target in test [1] is gamma globulin (manufactured by The Chemo-Sero-Therapeutic Research Institute), a human antibody (human).
For test [2] the target is unchanged. This is another data set of the same source.
Test [3] has the same target. The source holds these as a separate data set.
Test [4] shares this target. The source holds these as a separate data set.

Where two headings read alike, the source gives them in different places.

For “SpA5d (SpA4a with Asn11Lys) (designed binder)”, the Remaining activity [%] in test [1] worked out at 86%; in test [2], 88%; in test [3] it was 89%. In test [3], “SpA5e (SpA4a with Asn11Tyr) (designed binder)” gave a Remaining activity [%] of 85%.

In test [2], “SpA5f (SpA5d with Lys(Glu)58Gly) (designed binder)” registered a Remaining activity [%] of 90%. Turning to “SpA6a (SpA5d with Glu15Ala) (designed binder)”, the Remaining activity [%] in test [4] stood at 83%; in test [2], 91%; in test [3], 86%. Substance “SpA6b (SpA6a with Lys(Glu)58Asp) (designed binder)” yielded a Remaining activity [%] in test [3] of 87%. On the same count and under the same terms, with “SpA6c (SpA6a with Lys(Glu)58Val) (designed binder)” the figure was 87%; with “SpA7a (SpA6a with Val40Ala) (designed binder)”, 89%. Turning to “SpA7b (SpA6a with Asn3Ile) (designed binder)”, the Remaining activity [%] in test [4] amounted to 88%.
